Reference: US20030195338A1

What was measured:
TNFα = TNFα (UniProt P01375); test: cell-based or functional assay
TNFβ = target: T1, TNFβ (UniProt P01374); test: cell-based or functional assay
T1 sequence (looked up): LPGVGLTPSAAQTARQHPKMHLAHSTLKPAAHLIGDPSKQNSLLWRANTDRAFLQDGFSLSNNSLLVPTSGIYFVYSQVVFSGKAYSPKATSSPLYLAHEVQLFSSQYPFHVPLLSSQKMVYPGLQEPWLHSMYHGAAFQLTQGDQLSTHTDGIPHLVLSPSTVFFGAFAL

Chain of TNFα (P01375 77-233 limits assumed): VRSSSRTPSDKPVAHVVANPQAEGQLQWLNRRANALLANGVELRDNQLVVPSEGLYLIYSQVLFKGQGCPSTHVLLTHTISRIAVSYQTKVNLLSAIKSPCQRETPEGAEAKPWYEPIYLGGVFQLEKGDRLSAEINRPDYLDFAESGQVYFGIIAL
Chain of concatameric fusion dimeric protein [TNFR1-TNFR1/Fc]2 (Fc fusion) (chain): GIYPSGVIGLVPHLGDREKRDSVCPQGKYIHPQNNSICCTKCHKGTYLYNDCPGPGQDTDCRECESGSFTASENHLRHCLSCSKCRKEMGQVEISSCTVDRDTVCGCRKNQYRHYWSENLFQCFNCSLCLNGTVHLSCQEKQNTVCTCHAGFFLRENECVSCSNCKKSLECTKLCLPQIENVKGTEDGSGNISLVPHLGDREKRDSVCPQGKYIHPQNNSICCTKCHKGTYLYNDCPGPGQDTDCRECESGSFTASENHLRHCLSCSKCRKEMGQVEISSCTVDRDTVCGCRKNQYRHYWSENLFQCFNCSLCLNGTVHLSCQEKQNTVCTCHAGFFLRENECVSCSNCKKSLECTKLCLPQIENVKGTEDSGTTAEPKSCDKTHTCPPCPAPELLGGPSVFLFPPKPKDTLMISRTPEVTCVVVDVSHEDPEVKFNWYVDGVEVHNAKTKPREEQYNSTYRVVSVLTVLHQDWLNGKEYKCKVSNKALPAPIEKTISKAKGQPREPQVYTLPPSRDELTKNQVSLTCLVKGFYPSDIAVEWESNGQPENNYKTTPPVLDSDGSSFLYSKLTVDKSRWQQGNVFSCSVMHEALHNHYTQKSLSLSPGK
Chain of concatameric fusion dimeric protein [TNFR2-TNFR2/Fc]2 (Fc fusion) (chain): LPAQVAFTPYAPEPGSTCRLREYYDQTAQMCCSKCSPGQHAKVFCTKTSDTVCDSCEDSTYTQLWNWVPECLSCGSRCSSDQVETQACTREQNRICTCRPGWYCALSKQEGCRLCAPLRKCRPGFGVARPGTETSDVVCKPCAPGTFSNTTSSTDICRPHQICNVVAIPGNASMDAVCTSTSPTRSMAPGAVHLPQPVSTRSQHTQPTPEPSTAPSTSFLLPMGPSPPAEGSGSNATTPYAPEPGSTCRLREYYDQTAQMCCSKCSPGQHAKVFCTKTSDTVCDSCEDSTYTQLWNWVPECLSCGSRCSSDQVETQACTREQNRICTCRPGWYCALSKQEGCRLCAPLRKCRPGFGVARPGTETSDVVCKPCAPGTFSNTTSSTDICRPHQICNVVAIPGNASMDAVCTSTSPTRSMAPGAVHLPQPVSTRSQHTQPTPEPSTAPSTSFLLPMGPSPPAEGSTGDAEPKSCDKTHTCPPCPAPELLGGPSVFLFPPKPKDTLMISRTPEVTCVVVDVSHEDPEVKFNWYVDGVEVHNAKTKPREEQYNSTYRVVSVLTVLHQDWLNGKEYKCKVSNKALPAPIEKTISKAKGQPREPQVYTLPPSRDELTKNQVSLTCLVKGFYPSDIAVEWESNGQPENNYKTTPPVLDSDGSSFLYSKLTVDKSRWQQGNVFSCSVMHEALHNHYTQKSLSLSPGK
Chain of simple fusion dimeric protein [TNFR2/Fc]2 (Fc fusion) (chain): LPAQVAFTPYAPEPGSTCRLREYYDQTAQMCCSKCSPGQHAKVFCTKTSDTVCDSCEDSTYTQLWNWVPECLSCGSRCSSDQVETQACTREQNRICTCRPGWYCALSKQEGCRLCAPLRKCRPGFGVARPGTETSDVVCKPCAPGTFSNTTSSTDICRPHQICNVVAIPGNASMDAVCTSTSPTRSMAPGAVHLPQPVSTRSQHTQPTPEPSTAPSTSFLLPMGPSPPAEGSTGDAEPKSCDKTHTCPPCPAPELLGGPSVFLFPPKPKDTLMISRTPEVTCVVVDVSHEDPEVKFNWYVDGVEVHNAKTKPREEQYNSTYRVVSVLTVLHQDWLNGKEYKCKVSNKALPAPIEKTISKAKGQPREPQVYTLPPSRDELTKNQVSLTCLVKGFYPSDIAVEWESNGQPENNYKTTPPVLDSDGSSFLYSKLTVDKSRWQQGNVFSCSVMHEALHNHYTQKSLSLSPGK
Chain of simple fusion dimeric protein [TNFR1/Fc]2 (Fc fusion) (chain): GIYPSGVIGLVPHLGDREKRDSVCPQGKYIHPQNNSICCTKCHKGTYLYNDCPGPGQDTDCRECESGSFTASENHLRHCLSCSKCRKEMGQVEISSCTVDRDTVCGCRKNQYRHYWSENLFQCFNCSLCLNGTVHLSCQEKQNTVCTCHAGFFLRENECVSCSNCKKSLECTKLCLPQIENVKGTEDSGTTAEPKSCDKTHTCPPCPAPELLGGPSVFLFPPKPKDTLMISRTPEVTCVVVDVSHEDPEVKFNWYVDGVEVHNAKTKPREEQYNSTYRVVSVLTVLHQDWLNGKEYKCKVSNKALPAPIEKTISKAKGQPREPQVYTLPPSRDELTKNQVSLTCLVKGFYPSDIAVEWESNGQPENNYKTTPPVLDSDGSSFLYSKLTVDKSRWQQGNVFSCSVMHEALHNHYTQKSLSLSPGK

Row | Substance | IC50 of cytotoxicity inhibition, L929 cells, TNFα treated (TNFα) [µg/mL] | IC50 of cytotoxicity inhibition, L929 cells, TNFβ treated (TNFβ) [µg/mL]
1 | concatameric fusion dimeric protein [TNFR1-TNFR1/Fc]2 (Fc fusion) | 9 | 20
2 | simple fusion dimeric protein [TNFR2/Fc]2 (Fc fusion) | 189 | 469
3 | simple fusion dimeric protein [TNFR1/Fc]2 (Fc fusion) | 63 | 129
4 | concatameric fusion dimeric protein [TNFR2-TNFR2/Fc]2 (Fc fusion) | 15 | 15
